Data on two substances can be found in US12673132B2, “Extrusion printing of biocompatible scaffolds” (William Marsh Rice University, priority 2020, dated 2026).

No end group written: not given here.

A short description of data set [1]: microCT physical characterization of 3D printed PCL constructs. In kind it is physicochemical. The note with it: melt-extruded 4-layer crosshatch scaffold. The protocol: The 3D printed PCL constructs were fabricated by melt extrusion with an EnvisionTEC 3D Bioplotter Manufacturer (Gladbeck, Germany). The polymer of interest was placed in a metal cartridge, heated to 85-95° C., and extruded through a 27G needle at 4.9-5.1 bar pressure, 4.0 mm/s deposition speed, and 0.4 s pre-flow and post-flow, with imaging after each layer. Constructs were printed as a cylindrical, alternating crosshatch pattern with 4 layers of 5 mm diameter and 220 μm thickness, producing scaffolds with total dimensions of 5 mm diameter and 0.88 mm height. The porosity, average fiber diameter, and average pore diameter of each construct was assessed by microcomputed tomography (μCT) using a Bruker SkyScan 1272 (Billerica, MA). Scans were acquired at a voltage of 40 kV and a current of 250 μA, with a rotation step size of 0.4°, 8 μm/pixel, frame averaging of 6, and random movement of 10. Reconstruction, slicing, and analysis were performed in Bruker NRecon and CTAn software (Billerica, MA) and LabView (Austin, TX). For quantification of physical architectural properties, a proportional volume of interest was set at 75% scale of the x, v, and z axes, equally spaced from the scaffold edges.

Data set [2] relates to Rat bone marrow derived MSCs. In words: PicoGreen assay (DNA content) of MSC-seeded printed scaffolds. The class given is cell-based. The settings on record: osteogenic and osteochondral media, up to 28 days, FIG. 5A. From the text: (§1) Rat bone marrow derived MSCs (mesenchymal stem cells) were harvested by aspiration of bone marrow from the tibia of five 6-8 week old male Fischer 344 rats from Charles River Laboratories (Wilmington, MA), in accordance with protocols approved by the Rice Institutional Animal Care and Use Committee and in agreement with the animal care and use guidelines set forth by the National Institutes of Health. Cells from all rats were pooled to minimize inter-animal variability. Adherent cells were cultured in growth medium (DMEM with 10% v/v FBS and 1% v/v antibiotic-antimycotic) inside a humidified incubator at 37° C. and 5% CO2, and cryopreserved in liquid N2 until point of usage. All MSCs were used at Passage 3. Printed constructs were sterilized by exposure of both sides to UV light for 3 h, immersion in a sterile gradient (100%, 75%, 50%, 25%, 0%) of ethanol and PBS, and two additional washes in PBS. […] After weighing, each scaffold was frozen at −20° C. until ready for characterization. […] After homogenization, the proteinase K and acetic acid suspensions were allowed to digest for 16 h at 65° C. and room temperature, respectively, followed by quantification of biochemical content using assay kits. […] The bioactivity of PCL-peptide composites was determined by seeding MSCs on 3D printed constructs and investigating their ability to promote bone- and cartilage-specific ECM deposition in vitro. […]

In data set [3] the test system is Rat bone marrow derived MSCs. The experiment in a line: DMMB assay (cartilage-specific sulfated glycosaminoglycans) of MSC-seeded printed scaffolds. In kind it is cell-based.
Source text: as §1, with “PBS. MSCs were seeded on the scaffolds by pipetting 30 μL of a 3.3×10^6 cells/mL suspension on top of each scaffold in a low-attachment 24-well plate. After 2 h, 970 μL of growth medium was gently added to each well. After 24 h of cell attachment, the growth medium was replaced with either chondrogenic, osteogenic, or osteochondral medium. Parallel chondrogenic (PCL-alkyne, PCL-NC) and osteogenic (PCL-alkyne, PCL-GHK) studies were conducted, in which scaffolds were cultured in both tissue-specific medium as well as mixed osteochondral medium.” for “PBS.”

Data set [4] has as its system Rat bone marrow derived MSCs. The experiment in a line: Arsenazo III assay (bone-specific mineralization) of MSC-seeded printed scaffolds. The class given is cell-based. The note with it: mixed osteochondral medium.
Source text: as §1

On to “PCL-BMPm: PCL-alkyne click-conjugated to azide-terminated bone morphogenetic protein mimetic peptide (SEQ ID NO: 1, GGGRHVRISRSL) (GGGRHVRISRSL-NH2; not fully specified (N-terminus); also: N-terminal azide click-conjugated to PCL-alkyne)”, for which, in data set [1], the “Average Fiber Diameter” value came out at 262 ± 48 μm, the “Average Pore Diameter” value is on record as 419 ± 37 μm and the Porosity was found to be 70.7 ± 4.2%.
Regarding “PCL-NC: PCL-alkyne click-conjugated to azide-terminated N-cadherin peptide (SEQ ID NO: 3, GGGHAVDI) (GGGHAVDI-NH2; not fully specified (N-terminus); also: N-terminal azide click-conjugated to PCL-alkyne)”, in data set [2], the “DNA content normalized to scaffold mass (cell proliferation)” value is listed as “statistically lower proliferation”. In data set [3] (chondrogenic medium, up to day 28, FIG. 5D), the “sGAG content normalized to cellular content (sGAG deposition per cell)” value is reported as “large spike in cartilage-specific sGAG deposition per cell by day 28”. Further, the “sGAG content normalized to cellular content (sGAG deposition per cell)” value in data set [3] (mixed osteochondral medium, over time, FIG. 5D) was “maintained a constant level of sGAG deposition per cell”. Besides, in data set [3] (serum-free chondrogenic medium, FIG. 5E), the “sGAG content normalized to scaffold mass” value was “statistically significant increase in mass-normalized sGAG content”. In data set [1], the “Average Fiber Diameter” value was 200 ± 9 μm, the “Average Pore Diameter” value worked out at 432 ± 31 μm and the Porosity is 71.8 ± 3.7%. The “Bone-specific calcium content normalized to cellular content (mineralization per cell)” value in data set [4] (FIG. 5B) is “greater mineralization per cell”. For the same substance, in data set [4] (FIG. 5C), the “Bone-specific calcium content normalized to scaffold mass (scaffold mineralization)” value is “did not produce statistically significant effects on scaffold mineralization”.
